Assay results as given in publication PMC10349104.
“And” between values parts separate entries of the source, which are not always exact repeats. Identical values can stand only once.

How the values were obtained:
Test in all cases: SPR
[1] = molecular target: EVA-A(Y44A) (A. americanum)
[2] = molecular target: EVA-A(21-102) (A. americanum)
[3] = molecular target: EVA-A(L39P) (Amblyomma americanum)
[4] = molecular target: EVA-A(Y44A) (Amblyomma americanum)
[5] = molecular target: EVA-A(DC) (Amblyomma americanum)
[6] = molecular target: EVA-A(1-98) (A. americanum)
[7] = molecular target: EVA-A(L39P) (A. americanum)
[8] = molecular target: EVA-A(DN) (Amblyomma americanum)
[9] = molecular target: EVA-A(C8) (Amblyomma americanum)
[10] = molecular target: EVA-A(C8) (A. americanum)

Chain of CCL2 (P13500 24-99): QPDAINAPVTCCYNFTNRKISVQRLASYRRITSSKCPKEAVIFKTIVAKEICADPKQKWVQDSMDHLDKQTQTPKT
Chain of CCL5 (P13501 24-91): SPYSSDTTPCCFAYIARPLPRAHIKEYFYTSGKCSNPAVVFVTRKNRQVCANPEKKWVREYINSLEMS
Chain of CCL4 (P13236 24-92): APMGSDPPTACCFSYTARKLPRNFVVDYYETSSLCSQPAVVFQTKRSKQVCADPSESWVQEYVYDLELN
Chain of CCL3 (P10147 24-92): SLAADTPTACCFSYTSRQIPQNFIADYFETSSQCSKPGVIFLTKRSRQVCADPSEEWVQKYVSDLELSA
Chain of CCL1 (P22362 24-96): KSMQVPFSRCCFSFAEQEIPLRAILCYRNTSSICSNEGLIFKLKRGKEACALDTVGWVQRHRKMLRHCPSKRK

CCL1 (from UniProt P22362 24-96) (ligand)
Kd [1]: 49.9 nM
koff [1]: 0.00256 s⁻¹
kon [1]: 57000 M⁻¹ s⁻¹
Kd [2]: 457 nM
koff [2]: 0.18 s⁻¹
kon [2]: 268000 M⁻¹ s⁻¹
Kd [3]: 44.7 nM and 48.2 nM and 79.6 nM
koff [3]: 0.000863 s⁻¹ and 0.00063 s⁻¹ and 0.00153 s⁻¹
kon [3]: 19300 M⁻¹ s⁻¹ and 13100 M⁻¹ s⁻¹ and 19200 M⁻¹ s⁻¹
Kd [4]: 30.2 nM and 67.9 nM and 51.6 nM
koff [4]: 0.00285 s⁻¹ and 0.00348 s⁻¹ and 0.00135 s⁻¹
Kd [5]: 327 nM and 241 nM and 650 nM
koff [5]: 0.00168 s⁻¹ and 0.00255 s⁻¹ and 0.00199 s⁻¹
Kd [6]: 406 nM
koff [6]: 0.00168 s⁻¹
kon [6]: 6000 M⁻¹ s⁻¹
Kd [7]: 57.5 nM
koff [7]: 0.00167 s⁻¹
kon [7]: 17000 M⁻¹ s⁻¹
Kd [8]: 686 nM and 369 nM and 318 nM

CCL2 (from UniProt P13500 24-99) (ligand)
Kd [1]: 123 nM
koff [1]: 0.032 s⁻¹
kon [1]: 291000 M⁻¹ s⁻¹
Kd [3]: 25.6 nM and 20.7 nM and 28.4 nM
koff [3]: 0.00858 s⁻¹ and 0.00729 s⁻¹ and 0.00847 s⁻¹
kon [3]: 335000 M⁻¹ s⁻¹ and 353000 M⁻¹ s⁻¹ and 298000 M⁻¹ s⁻¹
Kd [4]: 109 nM and 191 nM and 70 nM
Kd [7]: 24.9 nM
koff [7]: 0.036 s⁻¹
kon [7]: 329000 M⁻¹ s⁻¹

CCL3 (from UniProt P10147 24-92) (ligand)
Kd [1]: 0.95 nM
koff [1]: 0.00044 s⁻¹
kon [1]: 566000 M⁻¹ s⁻¹
Kd [2]: 3.23 nM
koff [2]: 0.00144 s⁻¹
kon [2]: 449000 M⁻¹ s⁻¹
Kd [3]: 0.356 nM and 0.205 nM and 0.394 nM
koff [3]: 0.000296 s⁻¹ and 0.000365 s⁻¹ and 0.000413 s⁻¹
kon [3]: 831000 M⁻¹ s⁻¹ and 1.78e+06 M⁻¹ s⁻¹ and 1.05e+06 M⁻¹ s⁻¹
Kd [9]: 36.6 nM and 43.3 nM and 41.1 nM
Kd [4]: 1.2 nM and 0.464 nM
koff [4]: 0.000428 s⁻¹ and 0.000445 s⁻¹ and 0.000452 s⁻¹
kon [4]: 357000 M⁻¹ s⁻¹ and 369000 M⁻¹ s⁻¹ and 973000 M⁻¹ s⁻¹
Kd [5]: 1.67 nM and 1.95 nM and 1.68 nM
koff [5]: 0.000578 s⁻¹ and 0.000636 s⁻¹ and 0.00061 s⁻¹
kon [5]: 345000 M⁻¹ s⁻¹ and 326000 M⁻¹ s⁻¹ and 363000 M⁻¹ s⁻¹
Kd [6]: 1.77 nM
koff [6]: 0.00058 s⁻¹
kon [6]: 345000 M⁻¹ s⁻¹
Kd [7]: 0.32 nM
koff [7]: 0.0004 s⁻¹
kon [7]: 1.22e+06 M⁻¹ s⁻¹
Kd [8]: 2.89 nM and 3.24 nM and 3.57 nM
koff [8]: 0.00144 s⁻¹ and 0.00146 s⁻¹ and 0.00142 s⁻¹
kon [8]: 498000 M⁻¹ s⁻¹ and 452000 M⁻¹ s⁻¹ and 397000 M⁻¹ s⁻¹
Kd [10]: 40.3 nM
koff [10]: 0.0464 s⁻¹
kon [10]: 1.08e+06 M⁻¹ s⁻¹

CCL4 (from UniProt P13236 24-92) (ligand)
Kd [1]: 0.66 nM
koff [1]: 0.0002 s⁻¹
kon [1]: 319000 M⁻¹ s⁻¹
Kd [2]: 4.95 nM
koff [2]: 0.00218 s⁻¹
kon [2]: 461000 M⁻¹ s⁻¹
Kd [3]: 0.291 nM and 0.278 nM and 0.333 nM
koff [3]: 0.000211 s⁻¹ and 0.000223 s⁻¹ and 0.000297 s⁻¹
kon [3]: 724000 M⁻¹ s⁻¹ and 801000 M⁻¹ s⁻¹ and 890000 M⁻¹ s⁻¹
Kd [9]: 70.8 nM and 65.2 nM and 78.1 nM
koff [9]: 0.0133 s⁻¹ and 0.0132 s⁻¹ and 0.0382 s⁻¹
kon [9]: 188000 M⁻¹ s⁻¹ and 202000 M⁻¹ s⁻¹ and 489000 M⁻¹ s⁻¹
Kd [4]: 0.753 nM and 0.7 nM and 0.513 nM
koff [4]: 0.000169 s⁻¹ and 0.000191 s⁻¹ and 0.000236 s⁻¹
kon [4]: 224000 M⁻¹ s⁻¹ and 273000 M⁻¹ s⁻¹ and 460000 M⁻¹ s⁻¹
Kd [5]: 4.06 nM and 17.6 nM and 4.03 nM
koff [5]: 0.000873 s⁻¹ and 0.000943 s⁻¹ and 0.00091 s⁻¹
Kd [6]: 8.56 nM
koff [6]: 0.00087 s⁻¹
kon [6]: 165000 M⁻¹ s⁻¹
Kd [7]: 0.3 nM
koff [7]: 0.00023 s⁻¹
kon [7]: 805000 M⁻¹ s⁻¹
Kd [8]: 4.26 nM and 4.21 nM and 6.38 nM
koff [8]: 0.00229 s⁻¹ and 0.00217 s⁻¹ and 0.00209 s⁻¹
kon [8]: 538000 M⁻¹ s⁻¹ and 516000 M⁻¹ s⁻¹ and 328000 M⁻¹ s⁻¹
Kd [10]: 71.3 nM
koff [10]: 0.0215 s⁻¹
kon [10]: 293000 M⁻¹ s⁻¹

CCL5 (from UniProt P13501 24-91) (ligand)
Kd [1]: 0.23 nM
koff [1]: 0.00021 s⁻¹
kon [1]: 981000 M⁻¹ s⁻¹
Kd [2]: 2.52 nM
koff [2]: 0.00195 s⁻¹
kon [2]: 777000 M⁻¹ s⁻¹
Kd [3]: 0.0849 nM and 0.0557 nM and 0.0372 nM
koff [3]: 9.49e-05 s⁻¹ and 0.000111 s⁻¹ and 5.52e-05 s⁻¹
kon [3]: 1.12e+06 M⁻¹ s⁻¹ and 1.98e+06 M⁻¹ s⁻¹ and 1.48e+06 M⁻¹ s⁻¹
Kd [9]: 15.9 nM and 16.3 nM and 16 nM
koff [9]: 0.0113 s⁻¹ and 0.012 s⁻¹ and 0.0111 s⁻¹
kon [9]: 712000 M⁻¹ s⁻¹ and 738000 M⁻¹ s⁻¹ and 697000 M⁻¹ s⁻¹
Kd [4]: 0.145 nM and 0.294 nM and 0.251 nM
koff [4]: 0.000189 s⁻¹ and 0.000193 s⁻¹ and 0.000245 s⁻¹
kon [4]: 1.31e+06 M⁻¹ s⁻¹ and 658000 M⁻¹ s⁻¹ and 976000 M⁻¹ s⁻¹
Kd [5]: 0.973 nM and 1.11 nM and 1 nM
koff [5]: 0.000331 s⁻¹ and 0.000413 s⁻¹ and 0.00035 s⁻¹
kon [5]: 340000 M⁻¹ s⁻¹ and 372000 M⁻¹ s⁻¹ and 348000 M⁻¹ s⁻¹
Kd [6]: 1.03 nM
koff [6]: 0.00033 s⁻¹
kon [6]: 354000 M⁻¹ s⁻¹
Kd [7]: < 0.1 nM
koff [7]: < 0.0001 s⁻¹
kon [7]: 1.53e+06 M⁻¹ s⁻¹
Kd [8]: 2.42 nM (2×) and 2.72 nM
koff [8]: 0.00208 s⁻¹ and 0.00189 s⁻¹ and 0.00187 s⁻¹
kon [8]: 860000 M⁻¹ s⁻¹ and 783000 M⁻¹ s⁻¹ and 688000 M⁻¹ s⁻¹
Kd [10]: 16 nM
koff [10]: 0.0115 s⁻¹
kon [10]: 716000 M⁻¹ s⁻¹
